This assay deals with T1, HLA-A*02:01/PRAME antigen (recombinant, … on HLA-A*02:01) (human, Complex biotinylated for SPR capture; site of biotin and any tag not stated, not in the letters.).
T1 construct: also called PRAME target; pMHC
Description: SPR (Biacore 8K), biotinylated pMHC captured, Fab-scFv analyte, single-cycle kinetics, 1:1 fit. Here is the method:
Recombinantly produced hits in Fab-scFv format, as described in Example 4, were evaluated for their ability to bind HLA-A*02:01/PRAME antigen. Binding characterization was performed by surface plasmon resonance (SPR) using a Biacore™ 8k (Cytiva) device. Briefly, 3000 RU of Biotin CAPture reagent (Cytiva) was immobilized on a Series S Sensor Chip CAP (Cytiva) and the biotinylated ligand HLA-A*02:01/PRAME (SEQ ID NO: 68) was diluted in HPS-EP+ running buffer (TEKNOVA) and captured for 300 s at a flow rate of 2 μL/min at flow cell 2 resulting in a ligand capture level of >100 RU. Subsequently, at least three consecutive analyte injections were performed at suitable concentrations applying the single-cycle-kinetics mode at a flow rate of 30 μL/min with an association time of 90 s and the dissociation time set to >400 s. The chip surface was regenerated according to the manufacturer's instructions. After reference flow cell signal and blank injections subtraction, the data was fit to a 1:1 Langmuir binding model to determine the association rate constant kₐ and dissociation rate constant kd and calculate the equilibrium dissociation constant KD (kd/kₐ), also denoted as affinity, using the Biacore™ Insight Evaluation software.

In general, Kd refers to the constant that tells how readily two partners part at equilibrium.

Changes are numbered by the printed parent chain.

B1: M3286 (bispecific antibody)
heavy: EVQLVESGGGLVQPGGSLRLSCAASGFTFSTYAMNWVRQAPGKGLEWVGRIRSKYNNYATYYADSVKGRFTISRDDSKNTLYLQMNSLRAEDTAVYYCVRHGNFGDSYVSWFAYWGQGTLVTVSSASTKGPSVFPLAPSSKSTSGGTAALGCLVKDYFPEPVTVSWNSGALTSGVHTFPAVLQSSGLYSLSSVVTVPSSSLGTQTYICNVNHKPSNTKVDKKVEPKSCGGGGSDIQMTQSPSSLSASVGDRVTITCRSSQSVYNNLLGWYQQKPGKAPKLLIYSASTLASGVPSRFSGSGSGTDFTLTISSLQPEDSATYYCQGTYYTGDWYYPFGCGTKVEIKGGGGSGGGGSGGGGSGGGGSQVQLVESGGGSVQPGRSLRLSCAASGFTFSTYGVSWVRQAPGKCLEWIGYIDPVYGSTHYADSVKGRFTISRDNSKNTLYLQMNSLRAEDTASYYCARDLYAGSSGYYMIYSLWGQGTSVTVSS
light: QAVVTQEPSLTVSPGGTVTLTCGSSTGAVTTSNYANWVQQKPGKSPRGLIGGTNKRAPGVPARFSGSLLGGKAALTISGAQPEDEADYYCALWYSNHWVFGGGTKLTVLGQPKAAPSVTLFPPSSEELQANKATLVCLISDFYPGAVTVAWKADSSPVKAGVETTTPSKQSNNKYAASSYLSLTPEQWKSHRSYSCQVTHEGSTVEKTVAPTECS
notes: Humanized variant of M2638, monovalent Fab-scFv
B1: the dissociation constant Kd is 1.5 nM.

B2: M3293 (bispecific antibody)
heavy: B1 heavy with L288R, T392D, A461V
light: B1 light
notes: as for B1
On to B2, for which the Kd turned out to be 0.05 nM.

The values above are taken from US20250333514A1 (CDR LIFE, published 2025).
